{
  "source": "patent US20260184748A1",
  "about": "(University of Pennsylvania, published 2026)",
  "experiment_in_all_cases": "cell-based or functional assay",
  "key": {"ADRA2B": {"target": "T1, ADRA2B (UniProt P18089 1-450)", "T1 sequence (looked up)": "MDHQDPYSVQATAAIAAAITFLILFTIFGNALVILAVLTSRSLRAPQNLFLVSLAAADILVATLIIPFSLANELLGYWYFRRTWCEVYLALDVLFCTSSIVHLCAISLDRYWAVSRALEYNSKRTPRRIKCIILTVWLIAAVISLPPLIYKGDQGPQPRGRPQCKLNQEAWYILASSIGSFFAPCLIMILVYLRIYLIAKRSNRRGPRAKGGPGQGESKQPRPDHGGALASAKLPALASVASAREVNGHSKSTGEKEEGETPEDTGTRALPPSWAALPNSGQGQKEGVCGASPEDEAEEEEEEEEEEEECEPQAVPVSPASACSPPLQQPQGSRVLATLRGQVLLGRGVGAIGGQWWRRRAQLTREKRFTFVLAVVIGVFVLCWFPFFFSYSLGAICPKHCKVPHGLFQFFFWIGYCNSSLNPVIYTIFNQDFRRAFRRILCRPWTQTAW"}, "GPR120": {"target": "T2, GPR120 (UniProt Q5NUL3 1-361, limits assumed)", "T2 sequence (looked up)": "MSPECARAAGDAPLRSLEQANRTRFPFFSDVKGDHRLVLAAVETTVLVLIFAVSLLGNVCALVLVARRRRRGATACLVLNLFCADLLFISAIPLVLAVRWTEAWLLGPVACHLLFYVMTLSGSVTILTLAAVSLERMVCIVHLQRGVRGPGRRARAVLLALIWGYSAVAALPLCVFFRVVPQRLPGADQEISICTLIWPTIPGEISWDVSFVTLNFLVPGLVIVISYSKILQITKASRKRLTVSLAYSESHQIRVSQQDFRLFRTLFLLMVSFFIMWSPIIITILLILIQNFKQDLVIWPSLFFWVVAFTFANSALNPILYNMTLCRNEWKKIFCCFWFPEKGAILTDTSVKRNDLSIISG"}, "EDG4": {"target": "EDG4 (UniProt Q9HBW0 1-348)", "sequence (Q9HBW0 whole entry)": "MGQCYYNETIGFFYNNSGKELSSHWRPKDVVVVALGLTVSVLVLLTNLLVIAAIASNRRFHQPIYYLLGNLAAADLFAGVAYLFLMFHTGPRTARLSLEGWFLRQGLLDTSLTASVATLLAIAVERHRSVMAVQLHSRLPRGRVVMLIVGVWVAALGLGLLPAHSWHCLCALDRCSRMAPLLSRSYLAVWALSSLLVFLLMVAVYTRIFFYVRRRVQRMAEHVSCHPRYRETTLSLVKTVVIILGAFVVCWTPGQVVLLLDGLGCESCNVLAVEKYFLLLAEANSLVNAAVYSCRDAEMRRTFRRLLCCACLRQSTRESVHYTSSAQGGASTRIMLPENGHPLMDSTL"}, "FPR1": {"target": "T3, FPR1 (UniProt P21462 1-350)", "T3 sequence (looked up)": "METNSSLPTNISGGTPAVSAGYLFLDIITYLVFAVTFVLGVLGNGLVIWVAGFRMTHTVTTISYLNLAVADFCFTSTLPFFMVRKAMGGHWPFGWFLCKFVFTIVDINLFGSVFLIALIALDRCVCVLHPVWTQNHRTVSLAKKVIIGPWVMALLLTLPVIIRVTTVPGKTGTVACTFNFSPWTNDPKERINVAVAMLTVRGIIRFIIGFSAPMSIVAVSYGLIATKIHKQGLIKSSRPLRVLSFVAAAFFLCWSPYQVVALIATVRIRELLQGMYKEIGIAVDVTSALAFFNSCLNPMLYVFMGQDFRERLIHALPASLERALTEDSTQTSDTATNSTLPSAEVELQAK"}, "HTR5A": {"target": "HTR5A (UniProt P47898 1-357)", "sequence (P47898 whole entry)": "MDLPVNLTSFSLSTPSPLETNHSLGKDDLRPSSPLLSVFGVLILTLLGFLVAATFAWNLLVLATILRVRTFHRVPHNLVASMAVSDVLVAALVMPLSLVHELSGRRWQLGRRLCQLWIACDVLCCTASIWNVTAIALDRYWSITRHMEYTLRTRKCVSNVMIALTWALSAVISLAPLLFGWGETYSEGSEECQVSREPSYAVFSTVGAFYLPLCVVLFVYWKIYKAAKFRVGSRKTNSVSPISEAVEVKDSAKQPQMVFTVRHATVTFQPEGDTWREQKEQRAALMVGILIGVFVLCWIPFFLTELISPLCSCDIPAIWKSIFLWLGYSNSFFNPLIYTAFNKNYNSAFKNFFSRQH"}, "CCKAR": {"target": "T4, CCKAR (UniProt P32238 1-428)", "T4 sequence (looked up)": "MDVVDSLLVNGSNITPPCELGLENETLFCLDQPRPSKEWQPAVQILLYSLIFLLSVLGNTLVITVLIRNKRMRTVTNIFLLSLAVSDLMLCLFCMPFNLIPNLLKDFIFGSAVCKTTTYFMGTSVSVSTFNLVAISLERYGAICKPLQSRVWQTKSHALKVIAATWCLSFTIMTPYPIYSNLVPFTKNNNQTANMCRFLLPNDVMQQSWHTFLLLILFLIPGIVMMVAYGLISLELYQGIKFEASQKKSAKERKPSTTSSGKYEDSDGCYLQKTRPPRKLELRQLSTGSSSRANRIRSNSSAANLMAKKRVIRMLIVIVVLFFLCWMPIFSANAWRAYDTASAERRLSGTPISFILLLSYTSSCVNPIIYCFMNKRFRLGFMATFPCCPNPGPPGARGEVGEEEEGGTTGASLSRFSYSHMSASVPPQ"}, "SSTR2": {"target": "SSTR2 (UniProt P30874 1-369)", "sequence (P30874 whole entry)": "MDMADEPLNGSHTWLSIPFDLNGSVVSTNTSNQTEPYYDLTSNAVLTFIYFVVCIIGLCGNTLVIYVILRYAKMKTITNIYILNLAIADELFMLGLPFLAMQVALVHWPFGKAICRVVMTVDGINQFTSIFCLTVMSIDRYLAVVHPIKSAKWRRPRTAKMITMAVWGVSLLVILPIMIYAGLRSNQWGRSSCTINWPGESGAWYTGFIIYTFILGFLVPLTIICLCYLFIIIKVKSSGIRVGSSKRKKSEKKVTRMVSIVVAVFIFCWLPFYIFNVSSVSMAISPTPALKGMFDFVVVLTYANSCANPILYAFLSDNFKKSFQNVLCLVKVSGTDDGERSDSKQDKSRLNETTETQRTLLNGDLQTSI"}, "BRS3": {"target": "T5, BRS3 (UniProt P32247 1-399)", "T5 sequence (looked up)": "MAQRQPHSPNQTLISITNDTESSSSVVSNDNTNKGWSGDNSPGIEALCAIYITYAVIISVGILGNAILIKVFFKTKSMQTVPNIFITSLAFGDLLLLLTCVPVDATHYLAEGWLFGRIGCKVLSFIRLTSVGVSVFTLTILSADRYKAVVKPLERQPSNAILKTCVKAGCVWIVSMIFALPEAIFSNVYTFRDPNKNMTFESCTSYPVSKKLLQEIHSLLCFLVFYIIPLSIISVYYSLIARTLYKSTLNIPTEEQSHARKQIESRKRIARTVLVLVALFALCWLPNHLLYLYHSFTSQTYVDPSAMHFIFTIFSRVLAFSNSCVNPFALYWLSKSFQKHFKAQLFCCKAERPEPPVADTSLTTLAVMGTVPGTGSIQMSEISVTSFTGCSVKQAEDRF"}, "TACR3": {"target": "T6, TACR3 (UniProt P29371 1-465)", "T6 sequence (looked up)": "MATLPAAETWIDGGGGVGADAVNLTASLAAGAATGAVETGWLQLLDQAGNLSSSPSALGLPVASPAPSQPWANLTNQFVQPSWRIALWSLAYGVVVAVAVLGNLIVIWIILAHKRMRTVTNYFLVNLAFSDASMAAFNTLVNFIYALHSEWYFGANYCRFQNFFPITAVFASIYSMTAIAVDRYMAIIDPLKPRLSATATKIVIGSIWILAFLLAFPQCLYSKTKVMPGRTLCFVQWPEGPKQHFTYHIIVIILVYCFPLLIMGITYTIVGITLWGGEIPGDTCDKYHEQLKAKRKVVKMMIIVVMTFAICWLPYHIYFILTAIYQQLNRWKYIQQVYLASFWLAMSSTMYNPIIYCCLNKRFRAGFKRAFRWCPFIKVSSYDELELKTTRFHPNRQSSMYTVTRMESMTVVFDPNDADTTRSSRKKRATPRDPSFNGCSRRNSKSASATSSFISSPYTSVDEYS"}},
  "note": "Where no end group is shown, it is not given here.",
  "data": [
    {"binder": "QATVGDVNTDRPGLLDLK (also: synthesised on Rink amide resin, C-terminal amide not given here outright)", "note": "[octadecaneuropeptide (ODN)]", "values": [
      {"measurement": "% Activity, arrestin, antagonist mode, 2.5 uM", "setting": "ADRA2B", "value": -36.8, "unit": "%"},
      {"measurement": "% Activity, arrestin, antagonist mode, 2.5 uM", "setting": "GPR120", "value": 22.7, "unit": "%"},
      {"measurement": "% Activity, arrestin, antagonist mode, 2.5 uM", "setting": "EDG4", "value": 4.6, "unit": "%"},
      {"measurement": "% Activity, arrestin, antagonist mode, 2.5 uM", "setting": "FPR1", "value": -11.1, "unit": "%"},
      {"measurement": "% Activity, arrestin, antagonist mode, 2.5 uM", "setting": "HTR5A", "value": -0.3, "unit": "%"},
      {"measurement": "% Activity, arrestin, antagonist mode, 2.5 uM", "setting": "CCKAR", "value": -17.2, "unit": "%"},
      {"measurement": "% Activity, arrestin, antagonist mode, 2.5 uM", "setting": "SSTR2", "value": -20.5, "unit": "%"},
      {"measurement": "% Activity, arrestin, antagonist mode, 2.5 uM", "setting": "BRS3", "value": -5.8, "unit": "%"},
      {"measurement": "% Activity, arrestin, antagonist mode, 2.5 uM", "setting": "TACR3", "value": -5.8, "unit": "%"}
    ]}
  ]
}
